Measurements taken from article doi:10.1101/2023.08.28.555102 (bioRxiv, 2023).
Numbering of substitutions follows the chain as printed.

Tests used:
Assay in all cases: ITC
[1] = target: T1, tH2 (aa91-189) mutant W^132A (vaccinia virus, UniProt P08583 91-189, W^132A)
T1 sequence: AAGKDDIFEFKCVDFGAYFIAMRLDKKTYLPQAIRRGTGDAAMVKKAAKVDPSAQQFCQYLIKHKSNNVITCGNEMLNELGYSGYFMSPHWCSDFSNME

[2] = target: T2, tH2 (aa91-189) mutant D^141A (vaccinia virus, UniProt P08583 91-189, D^141A)
T2 sequence: T1 sequence with A42W, D51A

[3] = target: T3, tH2 (aa91-189) mutant R^125R^126A (vaccinia virus, UniProt P08583 91-189, R^125R^126A | R^125R^126A)
T3 sequence: T1 sequence with R35A, R36A, A42W

[4] = target: T4, tH2 (aa91-189) mutant K^116K^117A (vaccinia virus, UniProt P08583 91-189, K^116K^117A | K^116K^117A)
T4 sequence: T1 sequence with K26A, K27A, A42W

[5] = target: T5, tH2 (aa91-189) mutant G^127G^129A (vaccinia virus, UniProt P08583 91-189, G^127G^129A | G^127G^129A)
T5 sequence: T1 sequence with G37A, G39A, A42W

[6] = target: T6, tH2 (aa91-189) mutant D^130A (vaccinia virus, UniProt P08583 91-189, D^130A)
T6 sequence: T1 sequence with D40A, A42W

B1: recombinant A28 (aa56-146) (domain or fragment)
chain: DRRVQDVNDTISDVKQKWRCVVYPGNGFVSASIFGFQAEVGPNNTRSIRKFNTMQQCIDFTFSDVININIYNPCVVPNINNAECQFLKSVL
binding result [1]: binds | binding result [2]: binds | binding result [3]: binds | Kd [4]: ~5.3 µM | binding result [5]: binds | binding result [6]: binds
